Measurements from patent US20240228604A1 (ALCHEMAB THERAPEUTICS, published 2024).

Key:
Assay in all cases: Retrogenix cell microarray, fixed HEK293 cells
[1] = molecular target: T1, full-length human UNC5B on fixed HEK293 cells (Retrogenix panel) (human, UniProt Q8IZJ1 27-945)
T1 construct: whole, on cells

[2] = molecular target: T2, full-length human UNC5D on fixed HEK293 cells (Retrogenix panel) (human, UniProt Q6UXZ4 33-953)
T2 construct: whole, on cells
T2 sequence (looked up): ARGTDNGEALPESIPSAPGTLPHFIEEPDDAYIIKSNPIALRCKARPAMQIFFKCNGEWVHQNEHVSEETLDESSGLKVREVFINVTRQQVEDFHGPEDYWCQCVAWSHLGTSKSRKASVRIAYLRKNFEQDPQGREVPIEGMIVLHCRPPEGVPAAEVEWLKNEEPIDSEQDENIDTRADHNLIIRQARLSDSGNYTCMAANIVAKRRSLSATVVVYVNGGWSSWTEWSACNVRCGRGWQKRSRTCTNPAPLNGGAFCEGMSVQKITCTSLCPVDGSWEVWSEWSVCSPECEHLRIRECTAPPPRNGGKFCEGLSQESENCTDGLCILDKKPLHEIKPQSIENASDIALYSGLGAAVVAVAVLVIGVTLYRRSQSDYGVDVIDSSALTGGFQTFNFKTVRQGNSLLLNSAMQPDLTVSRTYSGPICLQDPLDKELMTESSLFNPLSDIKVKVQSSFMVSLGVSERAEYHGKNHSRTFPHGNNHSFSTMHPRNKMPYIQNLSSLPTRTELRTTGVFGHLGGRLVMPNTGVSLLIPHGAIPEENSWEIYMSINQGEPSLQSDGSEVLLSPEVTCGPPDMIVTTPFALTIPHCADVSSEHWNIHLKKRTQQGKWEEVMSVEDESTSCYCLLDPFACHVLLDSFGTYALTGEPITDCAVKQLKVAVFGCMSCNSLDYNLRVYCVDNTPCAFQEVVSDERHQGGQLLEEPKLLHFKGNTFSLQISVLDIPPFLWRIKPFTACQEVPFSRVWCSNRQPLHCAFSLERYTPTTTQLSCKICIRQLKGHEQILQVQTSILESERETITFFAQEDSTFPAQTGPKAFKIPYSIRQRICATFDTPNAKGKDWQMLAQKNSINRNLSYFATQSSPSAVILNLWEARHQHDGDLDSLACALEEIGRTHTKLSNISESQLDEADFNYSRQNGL

[3] = molecular target: T3, full-length human NEO1 on fixed HEK293 cells (Retrogenix panel) (human, UniProt Q92859 34-1461)
T3 construct: whole, on cells; also called neogenin
T3 sequence (looked up): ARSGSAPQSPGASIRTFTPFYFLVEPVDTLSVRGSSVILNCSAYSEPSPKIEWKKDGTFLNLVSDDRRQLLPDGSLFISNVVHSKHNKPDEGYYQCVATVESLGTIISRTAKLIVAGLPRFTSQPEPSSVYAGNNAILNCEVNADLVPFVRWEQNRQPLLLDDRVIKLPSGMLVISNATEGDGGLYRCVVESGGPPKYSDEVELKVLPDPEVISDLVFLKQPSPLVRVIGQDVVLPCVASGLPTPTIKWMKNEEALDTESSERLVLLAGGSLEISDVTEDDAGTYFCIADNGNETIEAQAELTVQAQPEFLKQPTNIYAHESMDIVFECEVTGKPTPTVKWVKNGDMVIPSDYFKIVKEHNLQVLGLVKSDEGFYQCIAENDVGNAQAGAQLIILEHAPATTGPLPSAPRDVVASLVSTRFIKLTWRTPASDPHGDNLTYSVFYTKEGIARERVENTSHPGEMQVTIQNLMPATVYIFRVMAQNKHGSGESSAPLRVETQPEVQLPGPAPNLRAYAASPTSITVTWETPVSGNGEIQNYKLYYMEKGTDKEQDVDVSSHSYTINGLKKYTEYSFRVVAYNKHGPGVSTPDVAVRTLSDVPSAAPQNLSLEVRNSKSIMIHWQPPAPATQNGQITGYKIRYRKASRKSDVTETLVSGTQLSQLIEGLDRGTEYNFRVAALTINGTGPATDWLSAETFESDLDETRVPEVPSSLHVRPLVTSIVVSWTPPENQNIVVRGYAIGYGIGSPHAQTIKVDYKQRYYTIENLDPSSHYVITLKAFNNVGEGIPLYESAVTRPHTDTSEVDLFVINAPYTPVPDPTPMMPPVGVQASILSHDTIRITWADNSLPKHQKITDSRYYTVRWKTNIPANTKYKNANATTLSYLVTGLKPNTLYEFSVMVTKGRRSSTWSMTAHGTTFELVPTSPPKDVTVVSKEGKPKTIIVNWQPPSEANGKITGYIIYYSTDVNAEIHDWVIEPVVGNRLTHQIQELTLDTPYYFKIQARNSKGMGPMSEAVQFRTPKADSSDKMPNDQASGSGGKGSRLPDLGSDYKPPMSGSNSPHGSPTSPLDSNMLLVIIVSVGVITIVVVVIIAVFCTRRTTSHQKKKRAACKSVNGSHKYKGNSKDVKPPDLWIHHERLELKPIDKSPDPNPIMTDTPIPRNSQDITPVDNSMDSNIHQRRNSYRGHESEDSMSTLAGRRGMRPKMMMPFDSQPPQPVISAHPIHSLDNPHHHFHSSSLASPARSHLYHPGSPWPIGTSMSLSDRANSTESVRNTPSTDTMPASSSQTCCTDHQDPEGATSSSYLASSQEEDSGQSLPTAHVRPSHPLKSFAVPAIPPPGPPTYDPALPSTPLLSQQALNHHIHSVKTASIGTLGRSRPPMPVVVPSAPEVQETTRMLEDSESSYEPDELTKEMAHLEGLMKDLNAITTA

[4] = molecular target: T4, full-length human DCC on fixed HEK293 cells (Retrogenix panel) (human, UniProt P43146 26-1447)
T4 construct: whole, on cells

[5] = molecular target: T5, full-length human DSCAM on fixed HEK293 cells (Retrogenix panel) (human, UniProt O60469 18-2012)
T5 construct: whole, on cells

Measured: binding result

T5 sequence (O60469 18-2012): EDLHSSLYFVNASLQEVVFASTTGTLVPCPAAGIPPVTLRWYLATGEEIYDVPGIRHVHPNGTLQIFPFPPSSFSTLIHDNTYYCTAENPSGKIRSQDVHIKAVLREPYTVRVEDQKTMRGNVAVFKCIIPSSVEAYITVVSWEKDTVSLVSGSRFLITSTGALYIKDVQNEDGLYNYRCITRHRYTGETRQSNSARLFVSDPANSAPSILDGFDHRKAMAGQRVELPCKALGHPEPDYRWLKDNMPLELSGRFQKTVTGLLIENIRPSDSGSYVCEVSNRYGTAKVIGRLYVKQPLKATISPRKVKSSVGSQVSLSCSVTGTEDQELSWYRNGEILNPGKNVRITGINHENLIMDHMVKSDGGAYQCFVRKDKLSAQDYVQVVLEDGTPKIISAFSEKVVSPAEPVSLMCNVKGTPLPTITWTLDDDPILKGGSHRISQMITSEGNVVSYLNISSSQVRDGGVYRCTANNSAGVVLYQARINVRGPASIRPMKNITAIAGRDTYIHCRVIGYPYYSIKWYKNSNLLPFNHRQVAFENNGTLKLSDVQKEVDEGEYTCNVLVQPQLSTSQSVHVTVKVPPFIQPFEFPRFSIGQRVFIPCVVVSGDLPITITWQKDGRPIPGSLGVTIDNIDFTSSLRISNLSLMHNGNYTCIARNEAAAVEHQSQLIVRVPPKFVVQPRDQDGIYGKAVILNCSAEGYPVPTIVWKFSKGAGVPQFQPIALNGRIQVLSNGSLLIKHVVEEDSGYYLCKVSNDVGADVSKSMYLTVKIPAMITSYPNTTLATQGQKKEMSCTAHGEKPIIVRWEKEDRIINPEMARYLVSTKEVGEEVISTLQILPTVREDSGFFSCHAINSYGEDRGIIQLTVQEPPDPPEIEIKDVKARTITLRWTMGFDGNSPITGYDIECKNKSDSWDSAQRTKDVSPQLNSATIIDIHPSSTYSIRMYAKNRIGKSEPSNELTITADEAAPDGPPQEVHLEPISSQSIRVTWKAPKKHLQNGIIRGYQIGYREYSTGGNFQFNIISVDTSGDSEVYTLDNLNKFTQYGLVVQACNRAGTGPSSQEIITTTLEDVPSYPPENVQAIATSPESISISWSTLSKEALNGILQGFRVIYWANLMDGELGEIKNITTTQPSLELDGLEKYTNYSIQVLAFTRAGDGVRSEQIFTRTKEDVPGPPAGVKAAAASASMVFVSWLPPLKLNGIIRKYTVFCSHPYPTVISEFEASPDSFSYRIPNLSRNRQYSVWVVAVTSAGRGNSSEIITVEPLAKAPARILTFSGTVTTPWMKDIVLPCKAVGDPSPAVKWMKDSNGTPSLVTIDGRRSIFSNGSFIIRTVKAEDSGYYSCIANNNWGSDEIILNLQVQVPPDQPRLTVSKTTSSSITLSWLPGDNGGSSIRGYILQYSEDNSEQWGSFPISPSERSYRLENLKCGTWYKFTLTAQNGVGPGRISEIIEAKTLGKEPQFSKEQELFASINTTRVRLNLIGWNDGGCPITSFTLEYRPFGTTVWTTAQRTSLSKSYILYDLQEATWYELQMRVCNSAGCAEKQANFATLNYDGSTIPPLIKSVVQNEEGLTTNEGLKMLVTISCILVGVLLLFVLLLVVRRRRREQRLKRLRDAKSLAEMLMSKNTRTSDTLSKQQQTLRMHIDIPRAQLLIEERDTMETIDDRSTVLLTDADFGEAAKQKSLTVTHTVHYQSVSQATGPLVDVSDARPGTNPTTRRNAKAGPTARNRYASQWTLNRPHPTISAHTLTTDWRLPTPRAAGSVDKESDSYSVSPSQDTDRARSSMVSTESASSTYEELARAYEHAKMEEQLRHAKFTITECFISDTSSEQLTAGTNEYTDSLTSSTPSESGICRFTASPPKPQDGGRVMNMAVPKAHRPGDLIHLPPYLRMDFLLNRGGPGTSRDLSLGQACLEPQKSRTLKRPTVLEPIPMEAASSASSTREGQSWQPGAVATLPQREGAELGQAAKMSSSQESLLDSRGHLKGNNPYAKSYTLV
T4 sequence (P43146 26-1447): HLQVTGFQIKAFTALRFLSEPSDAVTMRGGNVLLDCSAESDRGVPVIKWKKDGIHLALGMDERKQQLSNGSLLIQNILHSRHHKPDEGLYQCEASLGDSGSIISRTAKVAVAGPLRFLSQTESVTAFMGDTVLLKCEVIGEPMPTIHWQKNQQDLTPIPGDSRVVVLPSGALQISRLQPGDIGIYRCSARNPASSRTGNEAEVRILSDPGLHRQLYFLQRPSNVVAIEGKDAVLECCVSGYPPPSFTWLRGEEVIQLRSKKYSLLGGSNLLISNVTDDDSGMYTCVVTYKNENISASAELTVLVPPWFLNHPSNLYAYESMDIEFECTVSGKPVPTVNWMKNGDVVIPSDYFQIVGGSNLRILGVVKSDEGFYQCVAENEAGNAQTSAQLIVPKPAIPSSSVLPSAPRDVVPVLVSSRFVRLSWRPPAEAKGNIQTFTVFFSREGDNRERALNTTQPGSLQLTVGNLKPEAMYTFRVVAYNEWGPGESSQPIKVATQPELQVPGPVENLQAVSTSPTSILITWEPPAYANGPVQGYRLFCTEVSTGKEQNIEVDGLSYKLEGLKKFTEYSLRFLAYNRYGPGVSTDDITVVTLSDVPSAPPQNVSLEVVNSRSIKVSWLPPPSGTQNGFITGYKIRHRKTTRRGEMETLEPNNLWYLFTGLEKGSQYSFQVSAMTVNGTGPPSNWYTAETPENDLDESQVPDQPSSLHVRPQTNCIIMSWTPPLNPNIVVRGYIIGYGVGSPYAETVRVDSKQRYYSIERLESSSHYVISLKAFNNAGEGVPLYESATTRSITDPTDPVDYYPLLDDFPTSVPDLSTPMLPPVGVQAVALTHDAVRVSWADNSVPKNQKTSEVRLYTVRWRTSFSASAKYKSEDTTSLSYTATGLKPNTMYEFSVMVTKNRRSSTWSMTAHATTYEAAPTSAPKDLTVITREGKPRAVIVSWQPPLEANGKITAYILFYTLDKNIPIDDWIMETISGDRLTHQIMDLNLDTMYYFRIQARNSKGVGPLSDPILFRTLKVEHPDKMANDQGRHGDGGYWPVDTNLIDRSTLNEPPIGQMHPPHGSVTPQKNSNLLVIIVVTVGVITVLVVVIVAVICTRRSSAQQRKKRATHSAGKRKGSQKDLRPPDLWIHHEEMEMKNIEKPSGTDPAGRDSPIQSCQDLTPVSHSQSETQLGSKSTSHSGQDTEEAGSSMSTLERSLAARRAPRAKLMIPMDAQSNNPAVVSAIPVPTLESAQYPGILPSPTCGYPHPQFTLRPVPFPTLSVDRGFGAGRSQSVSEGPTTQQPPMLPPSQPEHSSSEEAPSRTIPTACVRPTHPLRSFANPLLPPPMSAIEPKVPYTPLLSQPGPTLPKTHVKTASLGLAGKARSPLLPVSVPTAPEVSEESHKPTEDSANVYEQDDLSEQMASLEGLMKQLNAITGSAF

B1: ATL_0006178 (antibody, IgG1, V domains shown)
VH: QVQLQESGPGLVKPSETLSLTCTVSGGSISSYFWSWIRQPPGKGLEWIGYIHYSGTTNQNPSLKSRVTISVDKSKNQFSLKLSSVTAADTAVYYCARGRGMATLPFDYWGQGTLVTVSS
VL: not shown
notes: Combination variant of ATL_5262 (T82K, Q67 kept, N58Y); also called ATL_6178; ATL6178
no binding: all assays above
